T1: CARD11, Q9BXL7
T1 sequence (Q9BXL7 662-765, limits assumed, looked up): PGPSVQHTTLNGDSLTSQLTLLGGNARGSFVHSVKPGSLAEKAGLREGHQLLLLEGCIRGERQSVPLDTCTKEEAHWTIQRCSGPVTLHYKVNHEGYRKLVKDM

T2: DFNB31_1, Q9P202
T2 sequence (Q9P202 135-233, limits assumed, looked up): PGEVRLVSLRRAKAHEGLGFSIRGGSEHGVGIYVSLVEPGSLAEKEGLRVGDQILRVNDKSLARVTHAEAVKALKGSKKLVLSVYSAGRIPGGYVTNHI

T3: GRIP1_2, Q9Y3R0
T3 sequence (Q9Y3R0 145-248, limits assumed, looked up): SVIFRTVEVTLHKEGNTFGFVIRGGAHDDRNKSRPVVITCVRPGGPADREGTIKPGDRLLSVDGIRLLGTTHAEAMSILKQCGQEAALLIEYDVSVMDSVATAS

T4: GRIP1_7, Q9Y3R0
T4 sequence (Q9Y3R0 999-1096, limits assumed, looked up): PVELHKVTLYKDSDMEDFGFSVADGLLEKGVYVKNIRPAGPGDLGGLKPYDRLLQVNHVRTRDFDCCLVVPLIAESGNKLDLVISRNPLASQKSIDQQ

T5: LRRC7, Q96NW7
T5 sequence (Q96NW7 1440-1537, limits assumed, looked up): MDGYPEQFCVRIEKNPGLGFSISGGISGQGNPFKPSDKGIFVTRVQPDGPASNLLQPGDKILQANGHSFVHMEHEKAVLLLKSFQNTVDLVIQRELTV

T6: MPDZ_10, O75970
T6 sequence (O75970 1624-1722, limits assumed, looked up): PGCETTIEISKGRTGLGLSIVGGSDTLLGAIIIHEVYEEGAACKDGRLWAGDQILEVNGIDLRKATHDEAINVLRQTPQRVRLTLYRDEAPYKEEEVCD

T7: MPDZ_5, O75970
T7 sequence (O75970 695-796, limits assumed, looked up): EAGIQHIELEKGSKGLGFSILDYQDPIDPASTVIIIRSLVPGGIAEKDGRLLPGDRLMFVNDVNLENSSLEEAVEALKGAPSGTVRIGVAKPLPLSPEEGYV

T8: MPP6, Q9NZW5
T8 sequence (Q9NZW5 125-219, limits assumed, looked up): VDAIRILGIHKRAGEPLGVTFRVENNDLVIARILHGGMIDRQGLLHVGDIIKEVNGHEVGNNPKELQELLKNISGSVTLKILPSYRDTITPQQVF

T9: MPP7, Q5T2T1
T9 sequence (Q5T2T1 134-230, limits assumed, looked up): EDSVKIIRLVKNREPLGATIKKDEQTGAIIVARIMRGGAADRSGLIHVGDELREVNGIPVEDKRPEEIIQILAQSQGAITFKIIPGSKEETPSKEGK

T10: RADIL, Q96JH8
T10 sequence (Q96JH8 971-1071, limits assumed, looked up): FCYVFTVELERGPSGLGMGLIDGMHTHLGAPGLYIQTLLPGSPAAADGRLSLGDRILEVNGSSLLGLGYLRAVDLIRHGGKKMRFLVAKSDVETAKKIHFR

T11: RAPGEF6, Q8TEU7
T11 sequence (Q8TEU7 525-625, limits assumed, looked up): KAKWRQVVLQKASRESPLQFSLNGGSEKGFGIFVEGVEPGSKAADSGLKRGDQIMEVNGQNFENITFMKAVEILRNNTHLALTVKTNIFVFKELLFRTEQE


The binders below were run against T1, CARD11, Q9BXL7 (assay: holdup assay). Conditions: plain residues with an end cap or a label only (N-terminal biotin on a linker: ado-ado).
Design: key: below the threshold = too weak to quantify, mostly under pKd 3.1 to 4

Row | pKd | Binder
1 | below the threshold | LSEFKAMDSI [CTNNA1, P35221]
2 | below the threshold | VNKSKLLTDV [KCNA1, Q09470]

These binders were tested against T2, DFNB31_1, Q9P202 (assay: holdup assay). Conditions: plain residues with an end cap or a label only (N-terminal biotin on a linker: ado-ado).
Design: key: below the threshold = too weak to quantify, mostly under pKd 3.1 to 4

Row | pKd | Binder
3 | below the threshold | LSEFKAMDSI [CTNNA1, P35221]
4 | below the threshold | VNKSKLLTDV [KCNA1, Q09470]

These binders were tested against DLG4_2, P78352 (assay: holdup assay). Conditions: plain residues with an end cap or a label only (N-terminal biotin on a linker: ado-ado).
Sequence of DLG4_2, P78352 (P78352 155-259): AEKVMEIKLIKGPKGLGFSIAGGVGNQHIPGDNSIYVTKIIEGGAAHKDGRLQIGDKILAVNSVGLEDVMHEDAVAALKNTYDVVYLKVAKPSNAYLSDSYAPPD
Design: key: below the threshold = too weak to quantify, mostly under pKd 3.1 to 4

Row | pKd | Binder
5 | below the threshold | LSEFKAMDSI [CTNNA1, P35221]
6 | 4.43 | VNKSKLLTDV [KCNA1, Q09470]

What follows are binders tested against FRMPD2_2, Q68DX3 (assay: holdup assay). Conditions: plain residues with an end cap or a label only (N-terminal biotin on a linker: ado-ado).
Sequence of FRMPD2_2, Q68DX3 (Q68DX3 944-1038): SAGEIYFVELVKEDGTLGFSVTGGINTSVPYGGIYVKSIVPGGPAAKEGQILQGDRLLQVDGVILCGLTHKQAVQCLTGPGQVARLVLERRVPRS
Design: key: below the threshold = too weak to quantify, mostly under pKd 3.1 to 4

Row | pKd | Binder
7 | below the threshold | LSEFKAMDSI [CTNNA1, P35221]
8 | below the threshold | VNKSKLLTDV [KCNA1, Q09470]

Each binder was assayed against FRMPD3, Q5JV73 (assay: holdup assay). Conditions: plain residues with an end cap or a label only (N-terminal biotin on a linker: ado-ado).
Sequence of FRMPD3, Q5JV73 (Q5JV73 12-100): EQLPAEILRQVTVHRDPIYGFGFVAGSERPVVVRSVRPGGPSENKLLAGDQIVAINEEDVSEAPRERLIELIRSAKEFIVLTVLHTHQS
Design: key: below the threshold = too weak to quantify, mostly under pKd 3.1 to 4

Row | pKd | Binder
9 | below the threshold | LSEFKAMDSI [CTNNA1, P35221]
10 | below the threshold | VNKSKLLTDV [KCNA1, Q09470]

The binders below were run against FRMPD4, Q14CM0 (assay: holdup assay). Conditions: plain residues with an end cap or a label only (N-terminal biotin on a linker: ado-ado).
Sequence of FRMPD4, Q14CM0 (Q14CM0 67-160): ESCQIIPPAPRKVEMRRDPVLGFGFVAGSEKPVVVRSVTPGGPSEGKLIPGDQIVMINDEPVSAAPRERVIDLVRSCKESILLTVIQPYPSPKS
Design: key: below the threshold = too weak to quantify, mostly under pKd 3.1 to 4

Row | pKd | Binder
11 | below the threshold | LSEFKAMDSI [CTNNA1, P35221]
12 | below the threshold | VNKSKLLTDV [KCNA1, Q09470]

Each binder was assayed against GOPC, Q9HD26 (assay: holdup assay). Conditions: plain residues with an end cap or a label only (N-terminal biotin on a linker: ado-ado).
Design: key: below the threshold = too weak to quantify, mostly under pKd 3.1 to 4

Row | pKd | Binder
13 | below the threshold | LSEFKAMDSI [CTNNA1, P35221]
14 | below the threshold | VNKSKLLTDV [KCNA1, Q09470]

What follows are binders tested against T3, GRIP1_2, Q9Y3R0 (assay: holdup assay). Conditions: plain residues with an end cap or a label only (N-terminal biotin on a linker: ado-ado).
Design: key: below the threshold = too weak to quantify, mostly under pKd 3.1 to 4

Row | pKd | Binder
15 | below the threshold | LSEFKAMDSI [CTNNA1, P35221]
16 | below the threshold | VNKSKLLTDV [KCNA1, Q09470]

These binders were tested against T4, GRIP1_7, Q9Y3R0 (assay: holdup assay). Conditions: plain residues with an end cap or a label only (N-terminal biotin on a linker: ado-ado).
Design: key: below the threshold = too weak to quantify, mostly under pKd 3.1 to 4

Row | pKd | Binder
17 | below the threshold | LSEFKAMDSI [CTNNA1, P35221]
18 | below the threshold | VNKSKLLTDV [KCNA1, Q09470]

Each binder was assayed against GRIP2_6, Q9C0E4 (assay: holdup assay). Conditions: plain residues with an end cap or a label only (N-terminal biotin on a linker: ado-ado).
Sequence of GRIP2_6, Q9C0E4 (Q9C0E4 648-740): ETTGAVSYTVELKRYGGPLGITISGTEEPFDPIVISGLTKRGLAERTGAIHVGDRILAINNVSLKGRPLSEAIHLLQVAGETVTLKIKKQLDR
Design: key: below the threshold = too weak to quantify, mostly under pKd 3.1 to 4

Row | pKd | Binder
19 | below the threshold | LSEFKAMDSI [CTNNA1, P35221]
20 | below the threshold | VNKSKLLTDV [KCNA1, Q09470]

The binders below were run against HTRA2, O43464 (assay: holdup assay). Conditions: plain residues with an end cap or a label only (N-terminal biotin on a linker: ado-ado).
Sequence of HTRA2, O43464 (O43464 355-458): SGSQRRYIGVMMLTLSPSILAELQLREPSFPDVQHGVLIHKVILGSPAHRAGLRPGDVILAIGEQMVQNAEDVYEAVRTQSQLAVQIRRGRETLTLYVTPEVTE
Design: key: below the threshold = too weak to quantify, mostly under pKd 3.1 to 4

Row | pKd | Binder
21 | below the threshold | LSEFKAMDSI [CTNNA1, P35221]
22 | below the threshold | VNKSKLLTDV [KCNA1, Q09470]

These binders were tested against IL16_1, Q14005 (assay: holdup assay). Conditions: plain residues with an end cap or a label only (N-terminal biotin on a linker: ado-ado).
Sequence of IL16_1, Q14005 (Q14005 210-306): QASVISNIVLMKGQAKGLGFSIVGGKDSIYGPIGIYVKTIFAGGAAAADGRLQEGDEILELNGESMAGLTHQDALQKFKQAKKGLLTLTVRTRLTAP
Design: key: below the threshold = too weak to quantify, mostly under pKd 3.1 to 4

Row | pKd | Binder
23 | below the threshold | LSEFKAMDSI [CTNNA1, P35221]
24 | below the threshold | VNKSKLLTDV [KCNA1, Q09470]

These binders were tested against Inadl_2, Q8NI35 (assay: holdup assay). Conditions: plain residues with an end cap or a label only (N-terminal biotin on a linker: ado-ado).
Sequence of Inadl_2, Q8NI35 (Q8NI35 238-335): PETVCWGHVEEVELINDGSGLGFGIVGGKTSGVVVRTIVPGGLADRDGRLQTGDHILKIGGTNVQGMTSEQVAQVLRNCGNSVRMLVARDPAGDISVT
Design: key: below the threshold = too weak to quantify, mostly under pKd 3.1 to 4

Row | pKd | Binder
25 | below the threshold | LSEFKAMDSI [CTNNA1, P35221]
26 | below the threshold | VNKSKLLTDV [KCNA1, Q09470]

What follows are binders tested against Inadl_4, Q8NI35 (assay: holdup assay). Conditions: plain residues with an end cap or a label only (N-terminal biotin on a linker: ado-ado).
Sequence of Inadl_4, Q8NI35 (Q8NI35 547-651): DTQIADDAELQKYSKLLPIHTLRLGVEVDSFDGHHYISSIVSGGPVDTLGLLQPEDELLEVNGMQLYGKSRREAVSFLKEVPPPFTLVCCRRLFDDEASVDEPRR
Design: key: below the threshold = too weak to quantify, mostly under pKd 3.1 to 4

Row | pKd | Binder
27 | below the threshold | LSEFKAMDSI [CTNNA1, P35221]
28 | below the threshold | VNKSKLLTDV [KCNA1, Q09470]

Each binder was assayed against LDB3, O75112 (assay: holdup assay). Conditions: plain residues with an end cap or a label only (N-terminal biotin on a linker: ado-ado).
Sequence of LDB3, O75112 (O75112 1-94): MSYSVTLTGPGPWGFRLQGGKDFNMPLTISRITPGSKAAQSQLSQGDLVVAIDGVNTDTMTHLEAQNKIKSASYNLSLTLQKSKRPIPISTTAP
Design: key: below the threshold = too weak to quantify, mostly under pKd 3.1 to 4

Row | pKd | Binder
29 | below the threshold | LSEFKAMDSI [CTNNA1, P35221]
30 | below the threshold | VNKSKLLTDV [KCNA1, Q09470]

These binders were tested against T5, LRRC7, Q96NW7 (assay: holdup assay). Conditions: plain residues with an end cap or a label only (N-terminal biotin on a linker: ado-ado).
Design: key: below the threshold = too weak to quantify, mostly under pKd 3.1 to 4

Row | pKd | Binder
31 | below the threshold | LSEFKAMDSI [CTNNA1, P35221]
32 | below the threshold | VNKSKLLTDV [KCNA1, Q09470]

Each binder was assayed against MAGI2_5, Q86UL8 (assay: holdup assay). Conditions: plain residues with an end cap or a label only (N-terminal biotin on a linker: ado-ado).
Sequence of MAGI2_5, Q86UL8 (Q86UL8 915-1017): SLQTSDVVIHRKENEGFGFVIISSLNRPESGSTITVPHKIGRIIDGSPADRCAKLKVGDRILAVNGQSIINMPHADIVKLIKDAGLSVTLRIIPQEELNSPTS
Design: key: below the threshold = too weak to quantify, mostly under pKd 3.1 to 4

Row | pKd | Binder
33 | below the threshold | LSEFKAMDSI [CTNNA1, P35221]
34 | below the threshold | VNKSKLLTDV [KCNA1, Q09470]

The binders below were run against MAGI3_2, Q5TCQ9 (assay: holdup assay). Conditions: plain residues with an end cap or a label only (N-terminal biotin on a linker: ado-ado).
Sequence of MAGI3_2, Q5TCQ9 (Q5TCQ9 398-503): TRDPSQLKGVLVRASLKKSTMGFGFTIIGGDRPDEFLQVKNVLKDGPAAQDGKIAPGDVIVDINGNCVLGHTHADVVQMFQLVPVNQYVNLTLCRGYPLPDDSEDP
Design: key: below the threshold = too weak to quantify, mostly under pKd 3.1 to 4

Row | pKd | Binder
35 | below the threshold | LSEFKAMDSI [CTNNA1, P35221]
36 | 4.16 | VNKSKLLTDV [KCNA1, Q09470]

What follows are binders tested against MAST1, Q9Y2H9 (assay: holdup assay). Conditions: plain residues with an end cap or a label only (N-terminal biotin on a linker: ado-ado).
Sequence of MAST1, Q9Y2H9 (Q9Y2H9 962-1065): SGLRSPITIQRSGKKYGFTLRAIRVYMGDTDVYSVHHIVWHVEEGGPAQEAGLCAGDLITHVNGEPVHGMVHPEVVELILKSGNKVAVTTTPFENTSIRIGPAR
Design: key: below the threshold = too weak to quantify, mostly under pKd 3.1 to 4

Row | pKd | Binder
37 | below the threshold | LSEFKAMDSI [CTNNA1, P35221]
38 | 4.3 | VNKSKLLTDV [KCNA1, Q09470]

What follows are binders tested against T6, MPDZ_10, O75970 (assay: holdup assay). Conditions: plain residues with an end cap or a label only (N-terminal biotin on a linker: ado-ado).
Design: key: below the threshold = too weak to quantify, mostly under pKd 3.1 to 4

Row | pKd | Binder
39 | below the threshold | LSEFKAMDSI [CTNNA1, P35221]
40 | below the threshold | VNKSKLLTDV [KCNA1, Q09470]

What follows are binders tested against T7, MPDZ_5, O75970 (assay: holdup assay). Conditions: plain residues with an end cap or a label only (N-terminal biotin on a linker: ado-ado).
Design: key: below the threshold = too weak to quantify, mostly under pKd 3.1 to 4

Row | pKd | Binder
41 | below the threshold | LSEFKAMDSI [CTNNA1, P35221]
42 | below the threshold | VNKSKLLTDV [KCNA1, Q09470]

What follows are binders tested against T8, MPP6, Q9NZW5 (assay: holdup assay). Conditions: plain residues with an end cap or a label only (N-terminal biotin on a linker: ado-ado).
Design: key: below the threshold = too weak to quantify, mostly under pKd 3.1 to 4

Row | pKd | Binder
43 | below the threshold | LSEFKAMDSI [CTNNA1, P35221]
44 | below the threshold | VNKSKLLTDV [KCNA1, Q09470]

What follows are binders tested against T9, MPP7, Q5T2T1 (assay: holdup assay). Conditions: plain residues with an end cap or a label only (N-terminal biotin on a linker: ado-ado).
Design: key: below the threshold = too weak to quantify, mostly under pKd 3.1 to 4

Row | pKd | Binder
45 | below the threshold | LSEFKAMDSI [CTNNA1, P35221]
46 | below the threshold | VNKSKLLTDV [KCNA1, Q09470]

What follows are binders tested against NHERF4_1, Q86UT5-2 (assay: holdup assay). Conditions: plain residues with an end cap or a label only (N-terminal biotin on a linker: ado-ado).
Sequence of NHERF4_1, Q86UT5-2 (Q86UT5 other isoform, or with tags, fused parts or gaps): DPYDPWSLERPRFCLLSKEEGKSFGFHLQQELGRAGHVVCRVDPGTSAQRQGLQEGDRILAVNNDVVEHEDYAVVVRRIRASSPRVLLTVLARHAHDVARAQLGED
Design: key: below the threshold = too weak to quantify, mostly under pKd 3.1 to 4

Row | pKd | Binder
47 | below the threshold | LSEFKAMDSI [CTNNA1, P35221]
48 | below the threshold | VNKSKLLTDV [KCNA1, Q09470]

Each binder was assayed against T10, RADIL, Q96JH8 (assay: holdup assay). Conditions: plain residues with an end cap or a label only (N-terminal biotin on a linker: ado-ado).
Design: key: below the threshold = too weak to quantify, mostly under pKd 3.1 to 4

Row | pKd | Binder
49 | below the threshold | LSEFKAMDSI [CTNNA1, P35221]
50 | below the threshold | VNKSKLLTDV [KCNA1, Q09470]

Each binder was assayed against T11, RAPGEF6, Q8TEU7 (assay: holdup assay). Conditions: plain residues with an end cap or a label only (N-terminal biotin on a linker: ado-ado).
Design: key: below the threshold = too weak to quantify, mostly under pKd 3.1 to 4

Row | pKd | Binder
51 | below the threshold | LSEFKAMDSI [CTNNA1, P35221]
52 | 3.53 | VNKSKLLTDV [KCNA1, Q09470]

Reference: article PMC9482650, “Quantitative fragmentomics allow affinity mapping of interactomes” (Nature Communications, 2022)
